From PMC5306358

Target: tissue factor (TF), endogenous on human cells (human (endogenous in HMVEC, HUVEC, HAEC, MDA-MB-231)) (UniProt P13726)
UniProt P13726, sequence (P13726 33-295): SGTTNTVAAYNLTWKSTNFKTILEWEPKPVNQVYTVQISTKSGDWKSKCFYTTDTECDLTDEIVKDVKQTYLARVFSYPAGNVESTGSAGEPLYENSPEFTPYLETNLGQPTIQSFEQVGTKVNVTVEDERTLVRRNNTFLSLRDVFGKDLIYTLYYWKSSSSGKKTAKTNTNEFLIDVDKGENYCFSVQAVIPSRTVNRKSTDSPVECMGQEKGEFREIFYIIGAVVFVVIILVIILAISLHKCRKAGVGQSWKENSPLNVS

Substance: mfVII/NLS-SnCe6 conjugate (ligand)
- clonogenic assay of angiogenic HMVEC after fVII-tPDT with fVII/NLS-SnCe6 (0.0, 0.5, 1 and 2 μM SnCe6, 635 nm laser light at 36 J/cm^2); EC50 of SnCe6 for killing: 31 nM
